Assay results reported in patent US20250236679A1 (Chugai, published 2025).

T1: human DLL3 expressed on cells (human DLL3/BaF3) (human, UniProt Q9NYJ7 27-618)
T1 construct: Full-length human DLL3 on the membrane of transformed Ba/F3 cells; The ADCC assays also used NCI-H1184 small-cell lung cancer cells that express DLL3; also called Delta-like 3; NM_016941
T1 sequence: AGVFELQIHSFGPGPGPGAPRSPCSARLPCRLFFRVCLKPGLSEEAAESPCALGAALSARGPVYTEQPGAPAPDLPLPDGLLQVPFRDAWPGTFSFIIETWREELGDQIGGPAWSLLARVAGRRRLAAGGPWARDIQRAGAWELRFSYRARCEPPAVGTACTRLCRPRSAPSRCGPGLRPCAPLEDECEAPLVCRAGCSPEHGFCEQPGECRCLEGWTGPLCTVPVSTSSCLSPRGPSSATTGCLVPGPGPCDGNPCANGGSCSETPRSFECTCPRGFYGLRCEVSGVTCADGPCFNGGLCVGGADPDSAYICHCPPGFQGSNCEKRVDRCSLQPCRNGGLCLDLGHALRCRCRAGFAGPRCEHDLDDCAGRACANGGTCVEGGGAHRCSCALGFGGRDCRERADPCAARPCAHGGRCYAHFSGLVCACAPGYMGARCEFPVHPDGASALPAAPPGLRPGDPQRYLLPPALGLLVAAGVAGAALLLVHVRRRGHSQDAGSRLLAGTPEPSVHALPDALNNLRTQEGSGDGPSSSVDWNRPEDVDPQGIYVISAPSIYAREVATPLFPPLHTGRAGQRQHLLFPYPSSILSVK

T2: human DLL3-Fc (human)
T2 construct: also called soluble DLL3 protein
T2 chain: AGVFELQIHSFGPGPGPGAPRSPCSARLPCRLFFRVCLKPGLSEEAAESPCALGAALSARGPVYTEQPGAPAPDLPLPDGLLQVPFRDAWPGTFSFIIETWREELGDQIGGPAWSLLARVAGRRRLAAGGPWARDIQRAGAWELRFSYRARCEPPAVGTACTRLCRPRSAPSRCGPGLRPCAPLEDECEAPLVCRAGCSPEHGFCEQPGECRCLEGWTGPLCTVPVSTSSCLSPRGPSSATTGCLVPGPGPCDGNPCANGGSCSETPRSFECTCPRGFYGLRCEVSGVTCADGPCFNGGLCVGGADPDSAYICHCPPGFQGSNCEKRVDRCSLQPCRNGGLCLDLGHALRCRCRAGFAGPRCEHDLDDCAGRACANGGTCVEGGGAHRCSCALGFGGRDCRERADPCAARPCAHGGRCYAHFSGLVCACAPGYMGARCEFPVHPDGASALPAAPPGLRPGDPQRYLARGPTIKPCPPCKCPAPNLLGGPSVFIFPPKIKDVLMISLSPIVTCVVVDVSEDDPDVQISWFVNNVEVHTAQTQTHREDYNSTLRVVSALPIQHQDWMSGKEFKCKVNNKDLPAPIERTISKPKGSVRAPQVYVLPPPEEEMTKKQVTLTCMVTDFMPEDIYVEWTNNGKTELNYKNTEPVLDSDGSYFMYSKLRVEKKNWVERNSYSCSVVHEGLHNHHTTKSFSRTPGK

B1: DL306 mouse monoclonal antibody (antibody, mouse IgG1, kappa)
heavy: EVQLQQSGPELVKPGASVKMSCRASGYTFTDYYMKWVKQSHGKSLEWIGDINPNNGDTFYNQKFKGKATLTIDKSSSTAYMQLNSLTSDDSAVYYCARDGNYAYFDYWGQGTTLTVSSAKTTPPSVYPLAPGSAAQTNSMVTLGCLVKGYFPEPVTVTWNSGSLSSGVHTFPAVLQSDLYTLSSSVTVPSSTWPSETVTCNVAHPASSTKVDKKIVPRDCGCKPCICTVPEVSSVFIFPPKPKDVLTITLTPKVTCVVVDISKDDPEVQFSWFVDDVEVHTAQTQPREEQFNSTFRSVSELPIMHQDWLNGKEFKCRVNSAAFPAPIEKTISKTKGRPKAPQVYTIPPPKEQMAKDKVSLTCMITDFFPEDITVEWQWNGQPAENYKNTQPIMNTNGSYFVYSKLNVQKSNWEAGNTFTCSVLHEGLHNHHTEKSLSHSPGK
light: DIVLTQSPASLAVSLGQRATISCRASKSVSTSGYSYMHWYQQKPGQPPKLLIFLASNLESGVPARFSGSGSGTDFTLNIHPVEEEDAATYYCQHSRHLPWTFGGGTKLEIKRADAAPTVSIFPPSSEQLTSGGASVVCFLNNFYPKDINVKWKIDGSERQNGVLNSWTDQDSKDSTYSMSSTLTLTKDEYERHNSYTCEATHKTSTSPIVKSFNRNEC
notes: also called DL306 mouse antibody
B2: DL309 mouse monoclonal antibody (antibody, mouse IgG1, kappa)
heavy: QVQLQQSGGDLMKPGASVKISCKAAGYTFSNYYIEWVKQRPGHGLEWIGEILPGSGSTTYNEKFKGKASFTADTSSNTAYMQLSSLTSEDSAVYYCARWGAREPGFPYWGQGTLVTVSAAKTTPPSVYPLAPGSAAQTNSMVTLGCLVKGYFPEPVTVTWNSGSLSSGVHTFPAVLQSDLYTLSSSVTVPSSTWPSETVTCNVAHPASSTKVDKKIVPRDCGCKPCICTVPEVSSVFIFPPKPKDVLTITLTPKVTCVVVDISKDDPEVQFSWFVDDVEVHTAQTQPREEQFNSTFRSVSELPIMHQDWLNGKEFKCRVNSAAFPAPIEKTISKTKGRPKAPQVYTIPPPKEQMAKDKVSLTCMITDFFPEDITVEWQWNGQPAENYKNTQPIMNTNGSYFVYSKLNVQKSNWEAGNTFTCSVLHEGLHNHHTEKSLSHSPGK
light: DIVMTQSQKFMSTSVGDRVSVTCKASQNVGTNVAWYQQKPGQSPKALIYSASYRYSGVPDRFTGSGSGTDFTLTISNVQSEDLAEYFCQQYNNYPLTFGAGTKLELKRADAAPTVSIFPPSSEQLTSGGASVVCFLNNFYPKDINVKWKIDGSERQNGVLNSWTDQDSKDSTYSMSSTLTLTKDEYERHNSYTCEATHKTSTSPIVKSFNRNEC
notes: also called DL309 mouse antibody
B3: DL301 mouse monoclonal antibody (antibody, mouse IgG1, kappa)
heavy: QVQLQQSGADLVRPGTSVKVSCKASGYAFTNYLIEWIKQRPGQGLEWIGVMNPGSGGTHYSEKFRGKATLTADKSSSTAYMQLISLTSDDSAVYFCARSDYDYVTYAMDYWGQGTSVTVSSAKTTPPSVYPLAPGSAAQTNSMVTLGCLVKGYFPEPVTVTWNSGSLSSGVHTFPAVLQSDLYTLSSSVTVPSSTWPSETVTCNVAHPASSTKVDKKIVPRDCGCKPCICTVPEVSSVFIFPPKPKDVLTITLTPKVTCVVVDISKDDPEVQFSWFVDDVEVHTAQTQPREEQFNSTFRSVSELPIMHQDWLNGKEFKCRVNSAAFPAPIEKTISKTKGRPKAPQVYTIPPPKEQMAKDKVSLTCMITDFFPEDITVEWQWNGQPAENYKNTQPIMNTNGSYFVYSKLNVQKSNWEAGNTFTCSVLHEGLHNHHTEKSLSHSPGK
light: DIKMTQSPSSMYASLGERVTITCKASQDINSYLIWFQQKPGKSPKTLIYRTNRLVDGVPSRFSGSGSGQDYSLTISSLEYGDMGIYYCLQYDEFPFTFGSGTKLEIKRADAAPTVSIFPPSSEQLTSGGASVVCFLNNFYPKDINVKWKIDGSERQNGVLNSWTDQDSKDSTYSMSSTLTLTKDEYERHNSYTCEATHKTSTSPIVKSFNRNEC
notes: also called DL301 mouse antibody
B4: DL312 mouse monoclonal antibody (antibody, mouse IgG1, kappa)
heavy: EVKLVESGGGLVQPGGSLSLSCAASGFTFTDYYMNWVRQPPGKALEWLALIRNKANGYTTEYNASVKGRFTISRDNSQNILYLQMNALRAEDSATYYCARDSDGYYEYYFDYWGQGTTLTVSSAKTTPPSVYPLAPGSAAQTNSMVTLGCLVKGYFPEPVTVTWNSGSLSSGVHTFPAVLQSDLYTLSSSVTVPSSTWPSETVTCNVAHPASSTKVDKKIVPRDCGCKPCICTVPEVSSVFIFPPKPKDVLTITLTPKVTCVVVDISKDDPEVQFSWFVDDVEVHTAQTQPREEQFNSTFRSVSELPIMHQDWLNGKEFKCRVNSAAFPAPIEKTISKTKGRPKAPQVYTIPPPKEQMAKDKVSLTCMITDFFPEDITVEWQWNGQPAENYKNTQPIMNTNGSYFVYSKLNVQKSNWEAGNTFTCSVLHEGLHNHHTEKSLSHSPGK
light: DIQMTQSPSSLSASLGERVSLTCRASQEISDYLSWLQQKPDGTIKRLIFAASTLDSGVPKRFSGSRSGSDFSLSISSLESEDFADYYCLQYASYPYTFGSGTKLEIKRADAAPTVSIFPPSSEQLTSGGASVVCFLNNFYPKDINVKWKIDGSERQNGVLNSWTDQDSKDSTYSMSSTLTLTKDEYERHNSYTCEATHKTSTSPIVKSFNRNEC
notes: also called D312; DL312 mouse antibody

What follows are binders tested against T1, human DLL3 expressed on cells (human …) (assay: flow cytometry on human DLL3/BaF3 cells, antibody 5 µg/ml).
Procedure: The binding of each monoclonal antibody to human DLL3 expressed on a cell membrane and the behavior of a human DLL3-monoclonal antibody complex on the cell membrane were analyzed by flow cytometry. Human DLL3/BaF3 cells were suspended in a FACS buffer (PBS containing 1% fetal bovine serum and 0.05% sodium azide). The cell suspension of 1×10⁶ cells/ml was reacted with the monoclonal antibody (final concentration: 5 μg/ml) at 4° C. for 30 minutes. After centrifugation and supernatant removal, the cells were washed once with a FACS buffer. FITC-labeled anti-mouse IgG (H+L) antibodies (Beckman Coulter, Inc.) were added thereto and incubated at 4° C. for 30 minutes. Unreacted FITC antibodies were removed by centrifugation. Then, the cells were resuspended and analyzed using a flow cytometer FACSCalibur (Becton, Dickinson and Company). For the purpose of analyzing the movement or disappearance of the DLL3-antibody complex from the cell membrane, human DLL3/BaF3 cells were suspended in an RPMI1640 culture medium containing 10% fetal bovine serum (FBS) and mouse IL3. The cell suspension of 1×10⁶ cells/ml was mixed with the monoclonal antibody (final concentration: 5 μg/ml) and reacted at 37° C. for 1 hour or 4 hours in a CO2 incubator. After the reaction, the amount of the antibody bound onto the cell membrane was analyzed by flow cytometry in the same way as above. The geometric mean of fluorescence intensity values (X Geo Mean) in a cell histogram plot was determined using the analytical software CELLQuest Pro included in FACSCalibur. All the isolated anti-DLL3 monoclonal antibodies bound to DLL3 on the cells (FIG. 3(a)). The reaction of the antibody with the cells at 4° C. inhibits membrane fluidity such as the cellular uptake of the DLL3-antibody complex from the cell membrane. The reaction of the antibody with the cells at 37° C. may cause the cellular uptake of the DLL3-antibody complex and shading (release from the cell membrane) resulting from protease digestion or the like. The amount of each monoclonal antibody bound onto the cell membrane as a result of incubation at 37° C. for 1 hour or 4 hours is shown in FIG. 3(b) as a relative value compared with that at 4° C. As a result of incubation at 37° C., the amount of the antibody DL303, DL304, DL305, DL308, DL309, or MAB4315 on the surface of the cell membrane was decreased.

Row | binding result | Binder
1 | binds | B1
2 | binds | B2
3 | binds | B3
4 | binds | B4

Biological target: T2, human DLL3-Fc
Experiment: ELISA, immobilized human DLL3-Fc
Procedure: The competition of a chimeric antibody and a mouse antibody for binding to the antigen molecule was analyzed by ELISA (FIG. 8 (b)). Human DLL3-Fc was added at 10 ng/well to a Nunc immunoplate and immobilized thereon. A mixture (final concentration: 50 ng/ml) of the chimeric antibody and the appropriately diluted mouse antibody was added to the DLL3-Fc protein-immobilized plate. The plate was incubated at room temperature for 1 hour and then washed. Alkaline phosphatase-labeled anti-human antibodies were added thereto and incubated. After the incubation, Sigma 104 was added thereto, and the absorbance was measured. The binding of the chimeric antibody to the antigen molecule competed with that of the original mouse monoclonal antibody thereto.

Row | binding result | Binder
5 | binds | B1
6 | binds | B2
7 | binds | B3
8 | binds | B4
